B1: BBSome complex member BBS2 (Homo sapiens), Q9BXC9 (parent)
chain: MLLPVFTLKLRHKISPRMVAIGRYDGTHPCLAAATQTGKVFIHNPHTRNQHVSASRVFQSPLESDVSLLSINQAVSCLTAGVLNPELGYDALLVGTQTNLLAYDVYNNSDLFYREVADGANAIVLGTLGDISSPLAIIGGNCALQGFNHEGSDLFWTVTGDNVNSLALCDFDGDGKKELLVGSEDFDIRVFKEDEIVAEMTETEIVTSLCPMYGSRFGYALSNGTVGVYDKTSRYWRIKSKNHAMSIHAFDLNSDGVNELITGWSNGKVDARSDRTGEVIFKDNFSSAIAGVVEGDYRMDGHIQLICCSVDGEIRGYLPGTAEMRGNLMDTSAEQDLIRELSQKKQNLLLELRNYEENAKAELASPLNEADGHRGIIPANTRLHTTLSVSLGNETQTAHTELRISTSNDTIIRAVLIFAEGIFTGESHVVHPSIHNLSSSICIPIVPPKDVPVDLHLKAFVGYRSSTQFHVFESTRQLPRFSMYALTSLDPASEPISYVNFTIAERAQRVVVWLGQNFLLPEDTHIQNAPFQVCFTSLRNGGHLHIKIKLSGEITINTDDIDLAGDIIQSMASFFAIEDLQVEADFPVYFEELRKVLVKVDEYHSVHQKLSADMADHSNLIRSLLVGAEDARLMRDMKTMKSRYMELYDLNRDLLNGYKIRCNNHTELLGNLKAVNQAIQRAGRLRVGKPKNQVITACRDAIRSNNINTLFKIMRVGTASS
partner: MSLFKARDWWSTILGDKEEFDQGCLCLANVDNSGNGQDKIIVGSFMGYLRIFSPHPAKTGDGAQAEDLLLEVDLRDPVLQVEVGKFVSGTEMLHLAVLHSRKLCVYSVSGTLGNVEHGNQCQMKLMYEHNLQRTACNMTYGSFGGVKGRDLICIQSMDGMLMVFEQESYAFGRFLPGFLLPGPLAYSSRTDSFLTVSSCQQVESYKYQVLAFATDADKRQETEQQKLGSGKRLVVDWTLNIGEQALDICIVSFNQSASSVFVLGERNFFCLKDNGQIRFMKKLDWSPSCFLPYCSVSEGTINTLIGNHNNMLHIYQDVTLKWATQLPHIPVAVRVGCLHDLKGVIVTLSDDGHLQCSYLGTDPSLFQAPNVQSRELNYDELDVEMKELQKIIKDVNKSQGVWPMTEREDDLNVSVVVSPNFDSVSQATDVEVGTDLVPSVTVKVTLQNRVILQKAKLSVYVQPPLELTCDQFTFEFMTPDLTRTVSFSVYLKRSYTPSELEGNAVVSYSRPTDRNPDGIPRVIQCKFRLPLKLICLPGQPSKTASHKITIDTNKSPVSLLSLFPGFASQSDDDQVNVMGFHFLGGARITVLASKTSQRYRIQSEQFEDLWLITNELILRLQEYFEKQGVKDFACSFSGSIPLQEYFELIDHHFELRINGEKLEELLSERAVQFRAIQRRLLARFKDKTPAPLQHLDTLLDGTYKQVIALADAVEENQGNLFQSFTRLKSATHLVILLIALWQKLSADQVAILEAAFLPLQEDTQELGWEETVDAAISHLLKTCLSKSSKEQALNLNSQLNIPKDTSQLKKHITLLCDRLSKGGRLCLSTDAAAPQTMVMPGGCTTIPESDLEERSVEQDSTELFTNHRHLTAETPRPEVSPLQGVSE

Variants of: B1
Settings: with pthb1_human BBS9, Q3SYG4

Effect of a mutation on the interaction, with no effect:
R594E
R594K
K595A
K595E
V596A
V596E
V596K
L597A
L597E
L597K
V598A
V598E
V598K
K599A
K599E
V600A
V600E
V600K
D601A
D601E
D601K
E602A
E602K
Y603A
Y603E
Y603K
H604A
H604E
H604K
S605A
S605E
S605K
V606A
V606E
V606K
H607A
H607E
H607K
Q608A
Q608E
Q608K
K609A
K609E
L610A
L610E
L610K
S611A
S611E
S611K
A612E
A612K
D613A
D613E
D613K
M614A
M614E
M614K
A615E
A615K
D616A
D616E
D616K
H617A
H617E
H617K
S618A
S618E
S618K
N619A
N619E
N619K
L620A
L620E
L620K
I621A
I621E
I621K
R622A
R622E
R622K
S623A
S623E
S623K
L624A
L624E
L624K
L625A
L625E
L625K
V626A
V626E
V626K
G627A
G627E

— IntAct's records for PubMed 29039417
